Results on five molecules are retold here after patent publication US20250136677A1 (ZOETIS SERVICES, published 2025).

Experiment [1] addresses T1, wildtype feline IL-31 protein (Feline_IL31_wildtype) (feline).
T1 sequence: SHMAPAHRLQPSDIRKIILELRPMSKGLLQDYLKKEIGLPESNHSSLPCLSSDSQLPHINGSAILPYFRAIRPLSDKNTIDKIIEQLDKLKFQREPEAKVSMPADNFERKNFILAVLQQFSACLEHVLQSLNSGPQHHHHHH

The target is the same in experiment [2]. The experiment is described as follows: Biacore, feline IL-31 chip, mAb 100 nM, share of points within parent mean +/-3 SD.
Experiment [3] has as its target T2, canine IL-31 protein (Canine_IL31) (canine).
T2 chain: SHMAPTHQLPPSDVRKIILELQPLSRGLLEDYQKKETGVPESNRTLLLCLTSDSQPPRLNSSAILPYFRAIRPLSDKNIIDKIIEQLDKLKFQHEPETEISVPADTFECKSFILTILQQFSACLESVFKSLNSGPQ

Experiment [4] concerns the target T3, wildtype feline IL-31 protein (Feline_IL31_wildtype) (feline).
T3 chain: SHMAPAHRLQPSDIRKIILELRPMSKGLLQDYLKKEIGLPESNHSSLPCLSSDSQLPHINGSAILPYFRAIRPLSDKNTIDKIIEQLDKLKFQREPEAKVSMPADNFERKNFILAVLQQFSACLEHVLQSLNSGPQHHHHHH
The experiment is described as follows: cell-based or functional assay.

For experiment [5], the target named is T3, wildtype feline IL-31 protein …. The experiment is described as follows: cell-based or functional assay.
For experiment [6], the target named is T2, canine IL-31 protein (Canine_IL31). The experiment is described as follows: cell-based or functional assay.
In experiment [7] the target is T4, equine IL-31 protein (Equine_IL31) (equine).
T4 construct: Recombinant equine IL-31
T4 chain: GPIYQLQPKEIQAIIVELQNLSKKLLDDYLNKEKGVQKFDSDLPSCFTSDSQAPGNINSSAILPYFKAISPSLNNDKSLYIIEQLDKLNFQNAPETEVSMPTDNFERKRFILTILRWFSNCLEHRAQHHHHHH
The experiment is described as follows: SPR (Biacore), IL-31 surface, single antibody concentration. On the procedure:
(§1) For the indirect ELISA method, antibody binding to wildtype and feline IL-31 15H05 mutant proteins was assessed. All nine canine monoclonal antibodies (ZIL1, ZIL8, ZIL8, ZIL11, ZIL69, ZIL94, ZIL154, ZIL159, and ZIL171) were capable of binding to wildtype feline IL-31 and binding was impacted by mutations in the mAb 15H05 epitope region confirming the correct binding phenotype determined during the initial screening used to identify them. In comparison, the 11E12 antibody bound to the wild-type feline IL-31 and its binding was not impacted by the mutations in the 15H05 epitope region as evidenced by the data in FIG. 4. To confirm binding, biacore analysis was performed using canine, feline, equine, human, feline 15H05 mutant, and feline 11E12 mutant IL-31 proteins as surfaces and a single test concentration of antibody. Similar to ELISA observations, all antibodies tested bound to wildtype feline IL-31. In agreement with the data described above in this section, mouse antibodies 11E12 and 15H05 both bound to canine and feline IL-31 surfaces. Three additional antibodies where shown to have this dual binding property, ZIL69 (partial canine binding), ZIL94, and ZIL159. From this group of nine fully canine antibodies, only ZIL1 and ZIL9 cross-reacted with equine IL-31. Of note, antibody 15H05 was the only one of all assayed herein that bound to canine, feline, and equine IL-31 indicating some level of epitope conservation across the three species. In contrast, none of the antibodies described herein bound to human IL-31. Additional biacore surfaces were used to verify ELISA observations showing differential binding of antibodies to wildtype feline IL-31 and two proteins with mutations in the 15H05 (15H05 mutant) or 11E12 (11E12 mutant) epitopes.

Experiment [8] addresses T3, wildtype feline IL-31 protein …. The experiment is described as follows: indirect ELISA, IL-31 protein coated. On the procedure: as §1, with “epitopes. […] In agreement with the ELISA results, all fully canine antibodies were impacted by the 15H05 mutation with the exception of ZIL94, ZIL154, and ZIL171 (partially affected). Differing results can be attributed to differences in the two assay methodologies.” for “epitopes.”

In experiment [9] the target is T5, mutant feline IL-31 15H05 protein (Feline_IL31_15H05_mutant) (feline).
T5 construct: also called feline 15H05 mutant; 15H05 IL-31 mutant
T5 chain: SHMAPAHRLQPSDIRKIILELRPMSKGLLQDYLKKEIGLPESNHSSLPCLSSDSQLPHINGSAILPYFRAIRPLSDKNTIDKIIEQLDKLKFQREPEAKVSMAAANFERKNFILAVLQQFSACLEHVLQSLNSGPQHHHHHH
The experiment is described as follows: indirect ELISA, IL-31 protein coated. As for the experimental part: as §1, with “epitopes. […] In agreement with the ELISA results, all fully canine antibodies were impacted by the 15H05 mutation with the exception of ZIL94, ZIL154, and ZIL171 (partially affected). Differing results can be attributed to differences in the two assay methodologies.” for “epitopes.”

In experiment [10] the target is T6, human IL-31 (human, UniProt Q6EBC2 24-164).
T6 sequence: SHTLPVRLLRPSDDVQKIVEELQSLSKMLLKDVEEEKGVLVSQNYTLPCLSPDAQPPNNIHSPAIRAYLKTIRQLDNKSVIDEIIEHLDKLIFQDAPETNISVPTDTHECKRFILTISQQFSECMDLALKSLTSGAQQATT
The experiment is described as follows: SPR (Biacore), IL-31 surface, single antibody concentration. On the procedure: as §1

The target in experiment [11] is T2, canine IL-31 protein (Canine_IL31). The experiment is described as follows: SPR (Biacore), IL-31 on chip, 1:1 fit.
Experiment [12] concerns the target T3, wildtype feline IL-31 protein …. The experiment is described as follows: SPR (Biacore), IL-31 on chip, 1:1 fit. The essentials: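 IL-31 was amine-coupled (NHS/EDC) to the chip at 5 μg/mL and quenched with ethanolamine, and candidate mAbs were flowed over it as analytes. Binding curves were fitted to a 1:1 model.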

B1: A14 (antibody, V domains shown)
VH: QVLLVQSGAEVRTPGASVKIFCKASGYSFTSYTIHWLRQAPAQGLEWMGNINPTSGYTENNQRFKDRLTLTADTSTNTAYMELSSLRSADTAMYYCARWGFKYDGEWSFDVWGAGTTVTVSS
VL: EIQMTQSPSSLSASPGDRVTITCRASQGISIWLSWYQQKPGNIPKVLIAKASNLHIGVPSRFSGSGSGTDFTLTISSLEPEDAATYYCLQSQTYPLTFGGGTKLEIK
Turning to B1, the % Inhibition Relative to Parent (pSTAT, FCWF-4 cells) in [1] is -5.4%. Also, the Binding Similarity score in [2] stood at 8.4.

B2: A22 (antibody, V domains shown)
VH: QVLLVQSGAEVRTPGASVKIFCKASGYSFTSYTIHWLRQAPAQGLEWMGNINPTSGYTENNQRFKDRLTLTADTSTNTAYMELSSLRSADTAMYYCARWGFKYDGEWSFDVWGAGTTVTVSS
VL: EIQMTQSPSSLSASPGDRVTITCRASQGISIWLSWYQQKPGNIPKVLINKASNLHIGVPSRFSGSGSGTDFTLTISSLEPEDAATYYCLQAQTYPLTFGGGTKLEIK
B2: the % Inhibition Relative to Parent (pSTAT, FCWF-4 cells) in experiment [1] is -4.3%. For the same molecule, in experiment [2], the Binding Similarity score came to 8.34.

B3: 15H05 mouse:canine chimera (antibody)
heavy: QVQLQQSAAELARPGASVKMSCKTSGYTFTSYTIHWIKQRPGQGLEWIGNINPTSGYTENNQRFKDKTTLTVDRSSNTAYLQLHSLTSEDSAVYFCARWGFKYDGEWSFDVWGAGTTVTVSSASTTAPSVFPLAPSCGSTSGSTVALACLVSGYFPEPVTVSWNSGSLTSGVHTFPSVLQSSGLYSLSSMVTVPSSRWPSETFTCNVAHPASKTKVDKPVPKRENGRVPRPPDCPKCPAPEMLGGPSVFIFPPKPKDTLLIARTPEVTCVVVDLDPEDPEVQISWFVDGKQMQTAKTQPREEQFNGTYRVVSVLPIGHQDWLKGKQFTCKVNNKALPSPIERTISKARGQAHQPSVYVLPPSREELSKNTVSLTCLIKDFFPPDIDVEWQSNGQQEPESKYRTTPPQLDEDGSYFLYSKLSVDKSRWQRGDTFICAVMHEALHNHYTQESLSHSPGK
light: DIQMNQSPSSLSASLGDTITVTCRASQGISIWLSWYQQKPGNIPKVLINKASNLHIGVPPRFSGSGSGTHFTLTITSLQPEDIATYYCLQSQTYPLTFGGGTKLEINRNDAQPAVYLFQPSPDQLHTGSASVVCLLNSFYPKDINVKWKVDGVIQDTGIQESVTEQDKDSTYSLSSTLTMSSTEYLSHELYSCEITHKSLPSTLIKSFQRSEC
In the case of B3, the IC50, inhibition of canine IL-31-induced STAT3 phosphorylation, canine DH82 cells in experiment [3] was found to be 12.7 µg/mL. In [4], the “IC50, feline IL-31 signaling on the canine DH82 cell line (pSTAT3)” value turned out to be 0.71 µg/ml. Besides, the “IC50, inhibition of feline IL-31-induced STAT3 phosphorylation, feline FCWF4 cells” value in [5] was 3.11 µg/mL. In [6], this molecule gave an IC50 against canine IL-31 (pSTAT3; cell type not stated for this pair of values) of 12.5 µg/ml.

B4: ZIL94 (recombinant fully canine antibody) (antibody, V domains shown)
VH: EVQLVDSGGDLVKPGGSLRLSCVASGFTFSTYFMSWVRQAPGRGLQWVALISSDGSGTYYADAVKGRFTISRDNAKNTLYLQMNSLRAEDTAMYYCAIFWRAFNDWGQGTLVTVSS
VL: QTVVIQEPSLSVSPGGTVTLTCGLNSGSVSTSNYPGWYQQTRGRTPRTIIYDTGSRPSGVPNRFSGSISGNKAALTITGAQPEDEADYYCSLYTDSDILVFGGGTHLTVLR
notes: also called CAN-ZIL94
As for B4, the binding result in [7] is recorded as “no binding”. For the same molecule, the results for the “ELISA OD” value in experiment [8] and in experiment [9] were 1.67 OD and 1.3 OD, respectively.

B5: mouse anti IL-31 antibody 11E12 (antibody, V domains shown)
VH: QVQLQQSGAELVKPGASVKLSCKASGYTFKYYDINWVRQRPEQGLEWIGWIFPGDGGTKYNETFKGKATLTTDKSSSTAYMQLSRLTSEDSAVYFCARGGTSVIRDAMDYWGQGTSVTVSS
VL: DIVLTQSPASLAVSLGQRATISCRASESVDNYGISFMHWYQQKPGQPPKLLIYRASNLESGIPARFSGSGSRTDFTLTINPVETDDVATYYCQQSNKDPLTFGAGTKLELK
notes: Mouse monoclonal comparison antibody; also called MU-11E12; mouse 11E12
As for B5, the binding result in experiment [10] and in experiment [7] was “no binding” each time. Moreover, the Kd in experiment [11] was 0.000763 nM; in experiment [12] it was 0.738 nM. Moreover, the results for the koff in experiment [11] and in [12] were 4.8e-07 s⁻¹ and 0.000123 s⁻¹, respectively. The kon in experiment [11] was found to be 629000 M⁻¹ s⁻¹; in experiment [12], 167000 M⁻¹ s⁻¹. The “ELISA OD” value in experiment [8] turned out to be 1.15 OD; in experiment [9] it was 1.33 OD. In [5], the “IC50, inhibition of feline IL-31-induced STAT3 phosphorylation, canine DH82 cells” value came out at 2.47 µg/mL. For the same molecule, the “IC50, inhibition of feline IL-31-induced STAT3 phosphorylation, feline FCWF4 cells” value in experiment [5] was determined as 2.01 µg/mL.
